From paper PMC3081289
Residue numbers refer to the chain shown, from its start. Numbers in names are those of the source. One block for each binder: values may come before it.

Tests used:
[1] = target: T1, Vascular Endothelial Growth Factor (VEGF), receptor binding domain, VEGF_(8–109); assay: SPR; conditions: chain shown with the change; for response (Response Units): 0.5 µM Fab, parent: est. 690, read off a plot
T1 chain: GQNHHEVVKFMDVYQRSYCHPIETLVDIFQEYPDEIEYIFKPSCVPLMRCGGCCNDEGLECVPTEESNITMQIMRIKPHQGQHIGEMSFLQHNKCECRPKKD

[2] = target: T1, Vascular Endothelial Growth Factor …; assay: SPR (ΔG derived from KD); conditions: chain shown with the change; 30°C, phosphate buffer (pH 7.4); parent: est. -12 kcal/mol; read off a plot
[3] = target: T1, Vascular Endothelial Growth Factor …; assay: calculated from ΔG (SPR) and ΔH (ITC); conditions: chain shown with the change; 30°C, phosphate buffer (pH 7.4); parent: est. -4.4 kcal/mol; read off a plot
[4] = 30°C, Fab over immobilized antigen

response (Response Units) [1]: 600
Kd [1, 4]: 3 nM
koff [1, 4]: 10 10^-4 s-1
dG [2]: -12 kcal/mol
other: -TΔS [3]: -3.7 kcal/mol
B1: bH1-44 Fab (affinity-improved variant of bH1) HC:R50A; HC:R58A (protein)
chain 1: EVQLVESGGGLVQPGGSLRLSCAASGFNISGTYIHWVRQAPGKGLEWVAAIYPSEGYTAYADSVKGRFTISADTSKNTAYLQMNSLRAEDTAVYYCSRWVGVGFYAMDYWGQGTLVTVSS
chain 2: DIQMTQSPSSLSASVGDRVTITCRASQNIAKTISGYVAWYQQKPGKAPKLLIYWGSFLYSGVPSRFSGSGSGTDFTLTISSLQPEDFATYYCQQHYSSPPTFGQGTKVEIK

response (Response Units) [1]: 60
B2: bH1-44 Fab (affinity-improved variant of bH1) LC:Y32A (protein)
chain 1: B1 chain 1 with A50R, A59R
chain 2: B1 chain 2 with Y36A
